Data on two molecules can be found in US20140087995A1 (published 2014).

Numbered stars: 1 amine (or outer) side, 2 acyl side, 3 side chain; on linkers, the order of the positions; unused ones are H or OH. Bridge positions count the residues as written; N and C are the ends. Side chains are listed from the residue outwards. Ends that are not written are not given here. * marks the point of attachment. C20 diacid = O=C(O)CCCCCCCCCCCCCCCCCCC(=O)*; γGlu = O=C(O)[C@H](CCC(=O)[*:2])N[*:1]

Assay [1] addresses T1, rat calcitonin receptor (rat, UniProt P32214 25-516).
T1 construct: whole, on cells; Used as membranes prepared from the transfected cells; also called rCTR; rat calcitonin (a) receptor
T1 sequence (looked up): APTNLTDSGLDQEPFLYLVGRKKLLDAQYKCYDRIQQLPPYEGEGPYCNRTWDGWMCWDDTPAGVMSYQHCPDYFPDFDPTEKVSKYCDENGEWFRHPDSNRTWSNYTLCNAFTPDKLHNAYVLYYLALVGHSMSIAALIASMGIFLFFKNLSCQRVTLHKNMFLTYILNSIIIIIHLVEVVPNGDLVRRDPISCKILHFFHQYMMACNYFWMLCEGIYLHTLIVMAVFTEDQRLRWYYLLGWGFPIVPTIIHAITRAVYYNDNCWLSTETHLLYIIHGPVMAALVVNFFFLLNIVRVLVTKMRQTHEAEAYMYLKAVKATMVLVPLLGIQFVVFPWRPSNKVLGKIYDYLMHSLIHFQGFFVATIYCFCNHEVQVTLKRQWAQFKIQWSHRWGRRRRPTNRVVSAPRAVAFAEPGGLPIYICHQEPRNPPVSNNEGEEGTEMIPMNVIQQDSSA
The assay is described as follows: ratio IC50 rat calcitonin receptor / IC50 rat amylin receptor (Assays VIII and VI).

The target in assay [2] is T2, human calcitonin receptor (human, UniProt P30988 25-474).
T2 construct: whole, on cells; Used as membranes prepared from the transfected cells (Assay VII); also called hCTR; hCT
T2 sequence (looked up): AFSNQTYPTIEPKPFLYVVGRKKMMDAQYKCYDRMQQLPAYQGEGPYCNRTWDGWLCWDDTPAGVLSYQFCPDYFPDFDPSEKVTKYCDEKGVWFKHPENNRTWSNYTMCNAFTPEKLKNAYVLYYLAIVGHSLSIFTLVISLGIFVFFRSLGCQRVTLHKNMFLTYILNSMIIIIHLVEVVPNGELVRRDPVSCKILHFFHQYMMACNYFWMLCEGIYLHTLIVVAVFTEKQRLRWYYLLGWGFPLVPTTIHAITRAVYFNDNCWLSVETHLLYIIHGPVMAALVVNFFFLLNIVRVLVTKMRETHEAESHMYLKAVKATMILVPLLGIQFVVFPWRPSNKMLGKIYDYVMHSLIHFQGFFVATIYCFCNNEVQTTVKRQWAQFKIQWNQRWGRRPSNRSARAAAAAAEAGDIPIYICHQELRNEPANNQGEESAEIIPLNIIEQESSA
The assay can be described thus: ratio IC50 human calcitonin receptor / IC50 human amylin receptor (Assays VII and V). In a few lines: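 Competition binding by SPA uses membrane preparations (35 ng/μL final) in pH 7.4 Hepes buffer with 1 mM CaCl2 and 5 mM MgCl₂. Incubation lasts 120 min at 25° C, and IC₅₀ comes from one-site fitting.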

Assay [3] deals with T1, rat calcitonin receptor. The assay is described as follows: SPA competition with 125I-calcitonin, membranes of BHK cells with rat calcitonin receptor (Assay VIII).
In assay [4] the target is T3, rat amylin receptor (rat calcitonin receptor + rat RAMP 3) (rat, UniProt P32214 25-516; Q9JJ73 23-147).
T3 construct: whole, on cells; Used as membranes prepared from the transfected cells; also called rAmylin-R; rat amylin 3(a) receptor
T3 sequence (looked up) 1: T1 sequence (looked up)
T3 sequence (looked up) 2: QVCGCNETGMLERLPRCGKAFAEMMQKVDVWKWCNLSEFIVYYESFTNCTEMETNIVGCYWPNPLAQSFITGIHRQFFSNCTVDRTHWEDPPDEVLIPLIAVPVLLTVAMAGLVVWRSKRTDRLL
The assay is described as follows: SPA competition with 125I-rat amylin, membranes of BHK cells with rat calcitonin receptor + rat RAMP3 (Assay VI).

B1: N^ε1-[(4S)-4-carboxy-4-[[(4S)-4-carboxy-4-(19-carboxynonadecanoylamino)butanoyl]amino]butanoyl]-[Asp14,Arg17,Pro21,Pro26,Asp35]-h-amylin (peptide)
peptide: K([γGlu-γGlu-C20 diacid])CNTATCATQRLADFLRHSSPNFGAPLSSTNVGSDTY-NH2
modifications: disulfide 2-7; N-terminus assumed
SMILES: CC(C)C[C@H](NC(=O)[C@H](CCCNC(=N)N)NC(=O)[C@H](CCC(N)=O)NC(=O)[C@@H](NC(=O)[C@H](C)NC(=O)[C@@H]1CSSC[C@H](NC(=O)[C@@H](N)CCCCNC(=O)CC[C@H](NC(=O)CC[C@H](NC(=O)CCCCCCCCCCCCCCCCCCC(=O)O)C(=O)O)C(=O)O)C(=O)N[C@@H](CC(N)=O)C(=O)N[C@@H]([C@@H](C)O)C(=O)N[C@@H](C)C(=O)N[C@@H]([C@@H](C)O)C(=O)N1)[C@@H](C)O)C(=O)N[C@@H](C)C(=O)N[C@@H](CC(=O)O)C(=O)N[C@@H](Cc1ccccc1)C(=O)N[C@@H](CC(C)C)C(=O)N[C@@H](CCCNC(=N)N)C(=O)N[C@@H](Cc1c[nH]cn1)C(=O)N[C@@H](CO)C(=O)N[C@@H](CO)C(=O)N1CCC[C@H]1C(=O)N[C@@H](CC(N)=O)C(=O)N[C@@H](Cc1ccccc1)C(=O)NCC(=O)N[C@@H](C)C(=O)N1CCC[C@H]1C(=O)N[C@@H](CC(C)C)C(=O)N[C@@H](CO)C(=O)N[C@@H](CO)C(=O)N[C@H](C(=O)N[C@@H](CC(N)=O)C(=O)N[C@H](C(=O)NCC(=O)N[C@@H](CO)C(=O)N[C@@H](CC(=O)O)C(=O)N[C@H](C(=O)N[C@@H](Cc1ccc(O)cc1)C(N)=O)[C@@H](C)O)C(C)C)[C@@H](C)O
notes: Derivative of human amylin; also called compound 1
In the case of B1, the “Ratio rCT/rAmylin binding” value with rat calcitonin receptor [1] is 104. In assay [2], the “Ratio hCT/hAmylin binding” value was found to be 27.6. Moreover, the IC50 with rat calcitonin receptor [3] came to 135 nM; in assay [4] it was 1.3 nM.

B2: N^ε1-[(4S)-4-carboxy-4-[[(4S)-4-carboxy-4-(19-carboxynonadecanoylamino)butanoyl]amino]butanoyl]-[Asp14,Arg17,Pro21,Pro27,Asp35]-h-amylin (peptide)
peptide: K([γGlu-γGlu-C20 diacid])CNTATCATQRLADFLRHSSPNFGAIPSSTNVGSDTY-NH2
modifications: disulfide 2-7; N-terminus assumed
SMILES: CC[C@H](C)[C@H](NC(=O)[C@H](C)NC(=O)CNC(=O)[C@H](Cc1ccccc1)NC(=O)[C@H](CC(N)=O)NC(=O)[C@@H]1CCCN1C(=O)[C@H](CO)NC(=O)[C@H](CO)NC(=O)[C@H](Cc1c[nH]cn1)NC(=O)[C@H](CCCNC(=N)N)NC(=O)[C@H](CC(C)C)NC(=O)[C@H](Cc1ccccc1)NC(=O)[C@H](CC(=O)O)NC(=O)[C@H](C)NC(=O)[C@H](CC(C)C)NC(=O)[C@H](CCCNC(=N)N)NC(=O)[C@H](CCC(N)=O)NC(=O)[C@@H](NC(=O)[C@H](C)NC(=O)[C@@H]1CSSC[C@H](NC(=O)[C@@H](N)CCCCNC(=O)CC[C@H](NC(=O)CC[C@H](NC(=O)CCCCCCCCCCCCCCCCCCC(=O)O)C(=O)O)C(=O)O)C(=O)N[C@@H](CC(N)=O)C(=O)N[C@@H]([C@@H](C)O)C(=O)N[C@@H](C)C(=O)N[C@@H]([C@@H](C)O)C(=O)N1)[C@@H](C)O)C(=O)N1CCC[C@H]1C(=O)N[C@@H](CO)C(=O)N[C@@H](CO)C(=O)N[C@H](C(=O)N[C@@H](CC(N)=O)C(=O)N[C@H](C(=O)NCC(=O)N[C@@H](CO)C(=O)N[C@@H](CC(=O)O)C(=O)N[C@H](C(=O)N[C@@H](Cc1ccc(O)cc1)C(N)=O)[C@@H](C)O)C(C)C)[C@@H](C)O
notes: Derivative of human amylin; also called compound 2
Consider B2, for which, in the assay with rat calcitonin receptor [1], the “Ratio rCT/rAmylin binding” value was found to be 366. For the same molecule, the “Ratio hCT/hAmylin binding” value in assay [2] is 47.5. Besides, the half-maximal inhibitory concentration (IC50) with rat calcitonin receptor [3] came out at 108 nM; in assay [4], 0.295 nM.
